Results: IntAct's records for PubMed 29892012

B1: Coiled-coil alpha-helical rod protein 1 (Homo sapiens), Q8TD31 (parent)
chain: MFPPSGSTGLIPPSHFQARPLSTLPRMAPTWLSDIPLVQPPGHQDVSERRLDTQRPQVTMWERDVSSDRQEPGRRGRSWGLEGSQALSQQAEVIVRQLQELRRLEEEVRLLRETSLQQKMRLEAQAMELEALARAEKAGRAEAEGLRAALAGAEVVRKNLEEGSQRELEEVQRLHQEQLSSLTQAHEEALSSLTSKAEGLEKSLSSLETRRAGEAKELAEAQREAELLRKQLSKTQEDLEAQVTLVENLRKYVGEQVPSEVHSQTWELERQKLLETMQHLQEDRDSLHATAELLQVRVQSLTHILALQEEELTRKVQPSDSLEPEFTRKCQSLLNRWREKVFALMVQLKAQELEHSDSVKQLKGQVASLQEKVTSQSQEQAILQRSLQDKAAEVEVERMGAKGLQLELSRAQEARRRWQQQTASAEEQLRLVVNAVSSSQIWLETTMAKVEGAAAQLPSLNNRLSYAVRKVHTIRGLIARKLALAQLRQESCPLPPPVTDVSLELQQLREERNRLDAELQLSARLIQQEVGRAREQGEAERQQLSKVAQQLEQELQQTQESLASLGLQLEVARQGQQESTEEAASLRQELTQQQELYGQALQEKVAEVETRLREQLSDTERRLNEARREHAKAVVSLRQIQRRAAQEKERSQELRRLQEEARKEEGQRLARRLQELERDKNLMLATLQQEGLLSRYKQQRLLTVLPSLLDKKKSVVSSPRPPECSASAPVAAAVPTRESIKGSLSVLLDDLQDLSEAISKEEAVCQGDNLDRCSSSNPQMSS
partner: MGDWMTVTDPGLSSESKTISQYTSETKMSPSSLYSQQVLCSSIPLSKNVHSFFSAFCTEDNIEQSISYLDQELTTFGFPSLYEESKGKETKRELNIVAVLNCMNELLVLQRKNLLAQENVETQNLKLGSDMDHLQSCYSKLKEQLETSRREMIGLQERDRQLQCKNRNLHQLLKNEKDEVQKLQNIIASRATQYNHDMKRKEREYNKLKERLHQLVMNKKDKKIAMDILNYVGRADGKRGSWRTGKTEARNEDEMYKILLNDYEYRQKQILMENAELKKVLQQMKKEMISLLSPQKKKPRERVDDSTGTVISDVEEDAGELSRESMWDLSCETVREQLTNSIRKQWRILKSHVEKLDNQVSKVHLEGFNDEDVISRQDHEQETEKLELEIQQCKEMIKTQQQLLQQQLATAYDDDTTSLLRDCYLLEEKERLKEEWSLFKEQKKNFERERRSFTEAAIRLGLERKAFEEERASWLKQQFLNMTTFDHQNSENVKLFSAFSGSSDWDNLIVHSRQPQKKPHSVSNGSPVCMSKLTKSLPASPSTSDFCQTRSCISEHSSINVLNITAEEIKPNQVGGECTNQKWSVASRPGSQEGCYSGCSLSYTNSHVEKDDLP
B2: Coiled-coil alpha-helical rod protein 1 (Homo sapiens), Q8TD31 (parent)
chain: B1 chain
partner: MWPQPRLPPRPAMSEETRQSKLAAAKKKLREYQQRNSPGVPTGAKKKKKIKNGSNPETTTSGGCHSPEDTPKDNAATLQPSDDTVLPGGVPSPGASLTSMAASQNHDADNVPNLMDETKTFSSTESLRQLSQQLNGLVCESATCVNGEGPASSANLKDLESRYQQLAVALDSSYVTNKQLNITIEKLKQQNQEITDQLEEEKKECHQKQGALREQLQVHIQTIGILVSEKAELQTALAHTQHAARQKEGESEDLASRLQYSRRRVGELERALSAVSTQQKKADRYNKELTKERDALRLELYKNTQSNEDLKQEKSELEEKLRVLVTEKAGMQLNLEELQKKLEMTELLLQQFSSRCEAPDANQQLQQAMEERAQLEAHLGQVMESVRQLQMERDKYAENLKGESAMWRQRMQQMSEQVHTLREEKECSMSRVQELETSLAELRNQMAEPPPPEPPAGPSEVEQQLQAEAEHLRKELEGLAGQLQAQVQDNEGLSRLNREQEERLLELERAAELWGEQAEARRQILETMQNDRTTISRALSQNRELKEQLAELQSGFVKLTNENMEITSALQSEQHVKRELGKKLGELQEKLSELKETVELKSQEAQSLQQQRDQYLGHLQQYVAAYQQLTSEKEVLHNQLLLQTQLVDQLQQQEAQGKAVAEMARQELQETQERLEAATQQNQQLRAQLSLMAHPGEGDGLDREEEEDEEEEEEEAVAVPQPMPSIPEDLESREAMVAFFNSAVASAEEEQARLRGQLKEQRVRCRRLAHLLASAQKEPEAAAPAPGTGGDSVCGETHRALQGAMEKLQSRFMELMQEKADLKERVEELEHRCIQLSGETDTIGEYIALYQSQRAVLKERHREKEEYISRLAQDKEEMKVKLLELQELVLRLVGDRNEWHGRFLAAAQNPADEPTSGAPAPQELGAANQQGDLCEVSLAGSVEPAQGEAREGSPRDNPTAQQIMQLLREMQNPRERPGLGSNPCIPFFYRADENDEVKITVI
B3: Coiled-coil domain-containing protein 120 (Homo sapiens), Q96HB5-4 (parent)
chain: MRREPRYQGQVGPDIHTDSERTLSSHQPRPLDSTKMEVKGQLISSPTFNAPAALFGEAAPQVKSERLRGLLDRQRTLQEALSLKLQELRKVCLQEAELTGQLPPECPLEPGERPQLVRRRPPTARAYPPPHPNQAHHSLCPAEELALEALEREVSVQQQIAAAARRLALAPDLSTEQRRRRRQVQADALRRLHELEEQLRDVRARLGLPVLPLPQPLPLSTGSVITTQGVCLGMRLAQLSQEDVVLHSESSSLSESGASHDNEEPHGCFSLAERPSPPKAWDQLRAVSGGSPERRTPWKPPPSDLYGDLKSRRNSVASPTSPTRSLPRSASSFEGRSVPATPVLTRGAGPQLCKPEGLHSRQWSGSQDSQMGFPRADPASDRASLFVARTRRSNSSEALLVDRAAGGGAGSPPAPLAPSASGPPVCKSSEVLYERPQPTPAFSSRTAGPPDPPRAARPSSAAPASRGAPRLPPVCGDFLLDYSLDRGLPRSGGGTGWGELPPAAEVPGPLSRRDGLLTMLPGPPPVYAADSNSPLLRTKDPHTRATRTKPCGLPPEAAEGPEVHPNPLLWMPPPTRIPSAGERSGHKNLALEGLRDWYIRNSGLAAGPQRRPVLPSVGPPHPPFLHARCYEVGQALYGAPSQAPLPHSRSFTAPPVSGRYYADFLYPPELSARLSDLTLEGEQSSSSDTQTPGTLV

Variants of: B1
Details: with adip_human SSX2IP
With W337R the “effect of a mutation on the interaction” value was “disrupting interaction strength”.

Variants of: B2
Details: with goga2_human GOLGA2, Q08379
W337R was tested, and the “effect of a mutation on the interaction” value was “disrupting interaction strength”.

Variants of: B3
Details: with cyh2_human CYTH2, Q99418
Chain of cyh2_human CYTH2, Q99418 (Q99418 whole entry): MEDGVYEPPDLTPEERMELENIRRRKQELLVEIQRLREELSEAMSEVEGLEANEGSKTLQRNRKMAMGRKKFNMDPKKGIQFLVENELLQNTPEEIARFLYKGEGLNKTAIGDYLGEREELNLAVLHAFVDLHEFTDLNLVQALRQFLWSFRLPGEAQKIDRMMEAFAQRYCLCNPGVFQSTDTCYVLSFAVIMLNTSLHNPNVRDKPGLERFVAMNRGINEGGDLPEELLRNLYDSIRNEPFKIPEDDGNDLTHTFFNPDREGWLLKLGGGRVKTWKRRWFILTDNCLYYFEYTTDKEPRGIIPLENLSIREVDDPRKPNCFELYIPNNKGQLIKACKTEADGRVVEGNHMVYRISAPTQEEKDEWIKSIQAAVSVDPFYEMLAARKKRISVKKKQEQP
With R346W the “effect of a mutation on the interaction” value was “with no effect”.

Variants of: B3
Details: with mdfi_human MDFI
With R346W the “effect of a mutation on the interaction” value was “with no effect”.

Variants of: B3
Details: with k1h1_human KRT31, Q15323
Chain of k1h1_human KRT31, Q15323 (Q15323 whole entry): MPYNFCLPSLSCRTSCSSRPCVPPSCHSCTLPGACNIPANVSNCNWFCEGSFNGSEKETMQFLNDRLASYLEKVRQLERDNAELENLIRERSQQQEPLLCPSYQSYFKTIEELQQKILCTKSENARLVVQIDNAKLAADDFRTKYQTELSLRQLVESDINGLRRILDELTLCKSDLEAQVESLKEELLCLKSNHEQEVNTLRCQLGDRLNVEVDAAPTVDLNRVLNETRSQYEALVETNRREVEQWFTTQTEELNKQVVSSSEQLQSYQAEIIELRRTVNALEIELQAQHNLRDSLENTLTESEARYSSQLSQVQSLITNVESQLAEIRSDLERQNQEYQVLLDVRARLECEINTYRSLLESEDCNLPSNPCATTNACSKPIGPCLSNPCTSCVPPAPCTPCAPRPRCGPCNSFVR
In the case of R346W, the “effect of a mutation on the interaction” value is reported as “with no effect”.

Variants of: B3
Details: with KRT15, P19012
Chain of KRT15, P19012 (P19012 whole entry): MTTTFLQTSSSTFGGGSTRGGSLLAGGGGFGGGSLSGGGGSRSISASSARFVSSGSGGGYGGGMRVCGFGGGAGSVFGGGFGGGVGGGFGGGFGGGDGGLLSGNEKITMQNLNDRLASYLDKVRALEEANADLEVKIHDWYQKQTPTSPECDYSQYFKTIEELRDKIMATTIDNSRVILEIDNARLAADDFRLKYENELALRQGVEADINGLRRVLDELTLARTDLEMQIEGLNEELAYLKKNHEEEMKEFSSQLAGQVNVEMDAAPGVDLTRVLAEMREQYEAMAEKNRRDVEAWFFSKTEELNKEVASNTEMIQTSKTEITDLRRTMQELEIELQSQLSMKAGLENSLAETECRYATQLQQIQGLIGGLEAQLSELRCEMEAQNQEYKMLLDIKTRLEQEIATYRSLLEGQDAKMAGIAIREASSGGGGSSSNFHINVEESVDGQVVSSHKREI
With R346W the “effect of a mutation on the interaction” value was “with no effect”.
